Experimental data taken from patent US12679888B2, “IL-18 binding protein (IL-18BP) and antibodies for treating inflammatory diseases” (AB2 BIO SA, priority 2015, dated 2026).
“And” between values parts separate entries of the source, which are not always exact repeats. Equal values may be shown once.

Legend:
IL-18 [1] = biological target: T1, IL-18 (Homo sapiens, UniProt Q14116); assay: New BIAcore setup: IL-18BP bound to chip, affinity to IL-18; assay type: binding; parameters: purchased; conditions: IL-18BP bound to BIAcore chip
T1 sequence (Q14116 37-193): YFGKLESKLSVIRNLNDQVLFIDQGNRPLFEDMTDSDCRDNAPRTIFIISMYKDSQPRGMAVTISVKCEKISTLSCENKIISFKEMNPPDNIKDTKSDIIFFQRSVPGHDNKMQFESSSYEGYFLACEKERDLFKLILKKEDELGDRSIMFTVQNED
Source text: Following the above KD results obtain by titration, we tested the binding affinity of IL-18BP to IL-18 with a simpler BIAcore setup consisting of binding IL-18BP to the BIAcore chip and then testing its affinity to IL-18. The method setup is the contrary of Kim et al 2000 ^8, who bound IL-18 to the BIAcore chip with a monoclonal antibody and then tested the affinity of the complex antibody-IL-18 to IL-18BP.

IL-18 [2] = biological target: T2, IL-18 (Mus musculus, UniProt P70380); assay: Dissociation constant (Kd) used for dose selection, mouse; assay type: binding
T2 sequence (P70380 36-192): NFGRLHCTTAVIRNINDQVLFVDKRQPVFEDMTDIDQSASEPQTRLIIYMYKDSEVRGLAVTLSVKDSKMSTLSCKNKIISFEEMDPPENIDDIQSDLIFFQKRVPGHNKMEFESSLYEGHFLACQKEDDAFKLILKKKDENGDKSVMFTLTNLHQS
Protocol: (§1) No validated animal model has been described for this condition. In the collagen-induced arthritis murine model the active dose for r-hIL-18BP administered intraperitoneally (i.p.) was determined to be 1 mg/Kg body weight. […] Altogether the expected pharmacologically active dose for a “humanized mice” treated by s.c. route with r-hIL-18BP is round 4.85 mg/kg. […] Although the guidance was initially written for extrapolating animal doses to healthy volunteers, its principles can be applied also to patients. […] Those doses will be likely also ineffective in AoSD patients considering that blood levels of IL-18 in AoSD are higher than those reported in the two above mentioned conditions.

IL-18 [3] = biological target: T1, IL-18; assay: KD calculation by titration of IL-18 with IL-18BP, free IL-18 ELISA (IL-18BP capture); assay type: binding; parameters: purchased; conditions: read-out: KD between human IL-18 and IL-18BP by titration
Protocol: (§2) Microplate wells are coated with an appropriate volume phosphate buffer saline solution containing recombinant human IL-18BP (r-hIL-18BP) as shown in SEQ ID NO 7, and less than 30% of N-terminal and/or C-terminal deletion variants of IL-18BP. A description of the r-hIL-18BP is provided in section 6.6.1 below. A description of the purification protocol is provided in section 6.6.2. Plates are incubated for a period of time at 4° C. and then stabilized with a blocking buffer containing bovine serum albumin or other appropriate blocking agents. Once the reaction is finished, microplates are sealed and stored at 4° C. until used for detection of free IL-18. Microplates can also be dried in a stabilizing solution allowing storage at room temperature and then be reconstituted by hydration when needed for assay.
As an example, for a final reaction volume of 100 μl, dispense first 80 μl of biotin/antibody conjugate. Samples or biological fluids containing free IL-18 are tested with the IL-18BP coated microplates. After that, 20 μl sample volume containing biological fluid or standard is dispensed per microplate well. […] The resulting reactions are then monitored with a microplate reader at an appropriate nanometer wavelength for absorbance or fluorescence of the produced reagent. […]
• KD was calculated based on the following formula: KD=[free IL-18]×[free IL-18BP]/[IL-18/IL-18BP complex] […]

[4] = test system: collagen-induced arthritis murine model; assay: Collagen-induced arthritis murine model and dose extrapolation; assay type: in vivo, mouse
Protocol: as §1

IL-18 [5] = biological target: T1, IL-18; assay: Titration of free IL-18 as a function of IL-18BP level (free IL-18 ELISA); assay type: binding; parameters: purchased; conditions: 400 pg/mL IL-18 in PBS, 5% BSA
Protocol: as §2, with “Microplates can also be dried in a stabilizing solution allowing storage at room temperature and then be reconstituted by hydration when needed for assay.” left out
As an example, for a final reaction volume of 100 μl, dispense first 80 μl of biotin/antibody conjugate. […] The resulting reactions are then monitored with a microplate reader at an appropriate nanometer wavelength for absorbance or fluorescence of the produced reagent.
A constant quantity of recombinant IL-18 was titrated as a function of different and well-defined quantities of IL-18BP in order to understand when free IL-18 is not any more detectable. A PBS solution of 400 pg/mL IL-18 supplemented by 5% BSA was spiked with defined quantities of IL-18BP ranging from 0 to 10′000 pg/mL. The molar ratios were calculated according to the respective molecular weight of IL-18 and IL-18BP. […]

[6] = in vivo

B1: IL-18BP: soluble glycoprotein of 164 amino acids produced from a Chinese Hamster Ovary cell line; isoform a, SEQ ID NO 7 (protein, listed as Homo sapiens)
chain: TPVSQTTTAATASVRSTKDPCPSQPPVFPAAKQCPALEVTWPEVEVPLNGTLSLSCVACSRFPNFSILYWLGNGSFIEHLPGRLWEGSTSRERGSTGTQLCKALVLEQLTPALHSTNFSCVLVDPEQVVQRHVVLAQLWAGLRATLPPTQEALPSSHSSPQQQG
modifications: CHO glycosylation; MISC_FEATURE - Human interleukin-18 binding protein isoform a
For B1, the Ka (IL-18 [1]) was 5.3 ± 1.2 10^+5/MS, the Kd (IL-18 [1]) was 0.02 to 0.03 nM and the Kd (IL-18 [2]) was 0.4 nM. The Kd (IL-18 [3]; PBS supplemented by 5% BSA diluent) was 0.035 nM, the Kd (IL-18 [3]; Serum diluent) was 0.05 nM and ~0.05 nM and the “effective s.c. dose in mice” value ([4]; adjusted for s.c. bioavailability) was 1.82 mg/kg. It also gave an active dose ([4]; administered intraperitoneally (i.p.)) of 1 mg/Kg body weight, a human equivalent dose ([4]; allometric murine conversion factor of 12.3) of 0.39 mg/kg and a human equivalent dose ([4]; for a 70 Kg individual) of 27.3 mg. For the same molecule, the “expected pharmacologically active dose for a humanized mice” value ([4]; s.c. route, corrected for Kd difference) was ~4.85 mg/kg, the “IL-18BP concentration at which 400 pg/mL IL-18 detection is near background detection level” value (IL-18 [5]) was ≥ 6000 pg/mL and the median half-life [6] was ~40 h.
